Measurements taken from the supplement of paper PMC10567573.

B1: TBX6 (parent)
chain: AFLELPHGSGGSGYPAAPPAVPFA

Variants of: B1
Assay: protein stability index of a GFP-peptide fusion (GPS, HEK-293T) (PSI 1-6); higher = more stable
Conditions: c terminus: a fixed tail appended
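Further: lentivirally expressed fusions sorted by FACS into six bins by GFP to DsRed ratio, PSI derived from sequencing read proportions per bin multiplied by bin number.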

Variant	protein stability index
AFLEFPHGSGGSGYPAAPPAVPFA [L5F]	2.29
AFLEEPHGSGGSGYPAAPPAVPFA [L5E]	2.83
AFLEMPHGSGGSGYPAAPPAVPFA [L5M]	2.69
AFLEIPHGSGGSGYPAAPPAVPFA [L5I]	2.43
AFLEGPHGSGGSGYPAAPPAVPFA [L5G]	3.25
AFLEKPHGSGGSGYPAAPPAVPFA [L5K]	2.59
AFLERPHGSGGSGYPAAPPAVPFA [L5R]	2.71
AFLEDPHGSGGSGYPAAPPAVPFA [L5D]	2.81
AFLECPHGSGGSGYPAAPPAVPFA [L5C]	2.51
AFLETPHGSGGSGYPAAPPAVPFA [L5T]	2.61
AFLEPPHGSGGSGYPAAPPAVPFA [L5P]	3.17
AFLESPHGSGGSGYPAAPPAVPFA [L5S]	2.8
AFLEAPHGSGGSGYPAAPPAVPFA [L5A]	2.79
AFLEWPHGSGGSGYPAAPPAVPFA [L5W]	2.32
AFLEYPHGSGGSGYPAAPPAVPFA [L5Y]	2.39
AFLEVPHGSGGSGYPAAPPAVPFA [L5V]	2.59
AFLENPHGSGGSGYPAAPPAVPFA [L5N]	2.74
AFLEHPHGSGGSGYPAAPPAVPFA [L5H]	2.9
AFLEQPHGSGGSGYPAAPPAVPFA [L5Q]	2.83
AFLELPHGSGHSGYPAAPPAVPFA [G11H]	2.15
AFLELPHGSGASGYPAAPPAVPFA [G11A]	2.5
AFLELPHGSGFSGYPAAPPAVPFA [G11F]	2.19
AFLELPHGSGLSGYPAAPPAVPFA [G11L]	1.93
AFLELPHGSGISGYPAAPPAVPFA [G11I]	2.23

Variant	protein stability index
AFLELPHGSGQSGYPAAPPAVPFA [G11Q]	2.2
AFLELPHGSGCSGYPAAPPAVPFA [G11C]	1.9
AFLELPHGSGKSGYPAAPPAVPFA [G11K]	2.07
AFLELPHGSGESGYPAAPPAVPFA [G11E]	2.77
AFLELPHGSGMSGYPAAPPAVPFA [G11M]	2.01
AFLELPHGSGDSGYPAAPPAVPFA [G11D]	2.89
AFLELPHGSGNSGYPAAPPAVPFA [G11N]	2.07
AFLELPHGSGPSGYPAAPPAVPFA [G11P]	2.28
AFLELPHGSGRSGYPAAPPAVPFA [G11R]	2.3
TFLELPHGSGGSGYPAAPPAVPFA [A1T]	2.71
WFLELPHGSGGSGYPAAPPAVPFA [A1W]	1.89
SFLELPHGSGGSGYPAAPPAVPFA [A1S]	2.08
YFLELPHGSGGSGYPAAPPAVPFA [A1Y]	2.21
VFLELPHGSGGSGYPAAPPAVPFA [A1V]	1.78
AFLELPMGSGGSGYPAAPPAVPFA [H7M]	2.1
AFLELPTGSGGSGYPAAPPAVPFA [H7T]	2.41
AFLELPRGSGGSGYPAAPPAVPFA [H7R]	2.67
AFLELPKGSGGSGYPAAPPAVPFA [H7K]	2.69
AFLELPNGSGGSGYPAAPPAVPFA [H7N]	2.2
AFLELPEGSGGSGYPAAPPAVPFA [H7E]	2.83
AFLELPLGSGGSGYPAAPPAVPFA [H7L]	1.97
AFLELPDGSGGSGYPAAPPAVPFA [H7D]	2.9
AFLELPGGSGGSGYPAAPPAVPFA [H7G]	2.74
AFLELPAGSGGSGYPAAPPAVPFA [H7A]	2.29

Variant	protein stability index
AFLELPYGSGGSGYPAAPPAVPFA [H7Y]	2.34
AFLELPSGSGGSGYPAAPPAVPFA [H7S]	2.4
AFLELPCGSGGSGYPAAPPAVPFA [H7C]	2.12
AFLELPWGSGGSGYPAAPPAVPFA [H7W]	1.56
AFLELPVGSGGSGYPAAPPAVPFA [H7V]	2.45
AFLELPFGSGGSGYPAAPPAVPFA [H7F]	1.85
AFLELPQGSGGSGYPAAPPAVPFA [H7Q]	2.4
AFLELPPGSGGSGYPAAPPAVPFA [H7P]	2.78
AFLELPIGSGGSGYPAAPPAVPFA [H7I]	2.39
ARLELPHGSGGSGYPAAPPAVPFA [F2R]	3.22
AGLELPHGSGGSGYPAAPPAVPFA [F2G]	3.33
AWLELPHGSGGSGYPAAPPAVPFA [F2W]	2.11
AVLELPHGSGGSGYPAAPPAVPFA [F2V]	3.2
ASLELPHGSGGSGYPAAPPAVPFA [F2S]	3.63
APLELPHGSGGSGYPAAPPAVPFA [F2P]	4.04
AELELPHGSGGSGYPAAPPAVPFA [F2E]	4.25
AKLELPHGSGGSGYPAAPPAVPFA [F2K]	3.76
ATLELPHGSGGSGYPAAPPAVPFA [F2T]	3.49
ADLELPHGSGGSGYPAAPPAVPFA [F2D]	3.93
AALELPHGSGGSGYPAAPPAVPFA [F2A]	3.45
ACLELPHGSGGSGYPAAPPAVPFA [F2C]	3.58
AQLELPHGSGGSGYPAAPPAVPFA [F2Q]	3.65
ALLELPHGSGGSGYPAAPPAVPFA [F2L]	3.08
AYLELPHGSGGSGYPAAPPAVPFA [F2Y]	2.82

Variant	protein stability index
AHLELPHGSGGSGYPAAPPAVPFA [F2H]	3.88
ANLELPHGSGGSGYPAAPPAVPFA [F2N]	4.05
AMLELPHGSGGSGYPAAPPAVPFA [F2M]	2.83
AILELPHGSGGSGYPAAPPAVPFA [F2I]	2.94
AFLELPHGLGGSGYPAAPPAVPFA [S9L]	1.93
AFLELPHGAGGSGYPAAPPAVPFA [S9A]	3.21
AFLELPHGQGGSGYPAAPPAVPFA [S9Q]	2.63
AFLELPHGWGGSGYPAAPPAVPFA [S9W]	2.31
AFLELPHGNGGSGYPAAPPAVPFA [S9N]	2.61
AFLELPHGFGGSGYPAAPPAVPFA [S9F]	1.45
AFLELPHGKGGSGYPAAPPAVPFA [S9K]	1.94
AFLELPHGTGGSGYPAAPPAVPFA [S9T]	2.1
AFLELPHGEGGSGYPAAPPAVPFA [S9E]	2.58
AFLELPHGHGGSGYPAAPPAVPFA [S9H]	2.02
AFLELPHGRGGSGYPAAPPAVPFA [S9R]	2.68
AFLELPHGCGGSGYPAAPPAVPFA [S9C]	1.96
AFLELPHGVGGSGYPAAPPAVPFA [S9V]	2.17
AFLELPHGPGGSGYPAAPPAVPFA [S9P]	2.61
AFLELPHGYGGSGYPAAPPAVPFA [S9Y]	2.21
AFLELPHGGGGSGYPAAPPAVPFA [S9G]	2.41
AFLELPHGDGGSGYPAAPPAVPFA [S9D]	2.6
AFLELPHGMGGSGYPAAPPAVPFA [S9M]	1.9
AFLELPHGIGGSGYPAAPPAVPFA [S9I]	2.12
AFLELPHCSGGSGYPAAPPAVPFA [G8C]	2.19

Variant	protein stability index
AFLELPHFSGGSGYPAAPPAVPFA [G8F]	1.71
AFLELPHVSGGSGYPAAPPAVPFA [G8V]	1.68
AFLELPHSSGGSGYPAAPPAVPFA [G8S]	2.71
AFLELPHASGGSGYPAAPPAVPFA [G8A]	2.86
AFLELPHTSGGSGYPAAPPAVPFA [G8T]	2.27
AFLELPHRSGGSGYPAAPPAVPFA [G8R]	2.1
AFLELPHESGGSGYPAAPPAVPFA [G8E]	3.31
AFLELPHDSGGSGYPAAPPAVPFA [G8D]	2.75
AFLELPHKSGGSGYPAAPPAVPFA [G8K]	2.42
AFLELPHISGGSGYPAAPPAVPFA [G8I]	1.88
AFLELPHLSGGSGYPAAPPAVPFA [G8L]	1.96
AFLELPHYSGGSGYPAAPPAVPFA [G8Y]	1.97
AFLELPHNSGGSGYPAAPPAVPFA [G8N]	2.53
AFLELPHMSGGSGYPAAPPAVPFA [G8M]	2.57
AFLELPHWSGGSGYPAAPPAVPFA [G8W]	1.93
AFLELPHPSGGSGYPAAPPAVPFA [G8P]	2.21
AFLELPHQSGGSGYPAAPPAVPFA [G8Q]	2.02
AFLELPHHSGGSGYPAAPPAVPFA [G8H]	2.27
AFLELPHGSVGSGYPAAPPAVPFA [G10V]	2.2
AFLELPHGSWGSGYPAAPPAVPFA [G10W]	1.25
AFLELPHGSPGSGYPAAPPAVPFA [G10P]	2.44
AFLELPHGSMGSGYPAAPPAVPFA [G10M]	2.3
AFLELPHGSFGSGYPAAPPAVPFA [G10F]	2.36
AFLELPHGSHGSGYPAAPPAVPFA [G10H]	2.34

Variant	protein stability index
AFLELPHGSCGSGYPAAPPAVPFA [G10C]	2.55
AFLELPHGSEGSGYPAAPPAVPFA [G10E]	2.96
AFLELPHGSTGSGYPAAPPAVPFA [G10T]	2.1
AFLELPHGSQGSGYPAAPPAVPFA [G10Q]	2.08
AFLELPHGSLGSGYPAAPPAVPFA [G10L]	2.22
AFLELPHGSSGSGYPAAPPAVPFA [G10S]	2.7
AFLELPHGSAGSGYPAAPPAVPFA [G10A]	2.24
AFLELPHGSYGSGYPAAPPAVPFA [G10Y]	1.9
AFLELPHGSRGSGYPAAPPAVPFA [G10R]	2.07
AFLELPHGSDGSGYPAAPPAVPFA [G10D]	2.67
AFLELPHGSIGSGYPAAPPAVPFA [G10I]	2.55
AFLELPHGSKGSGYPAAPPAVPFA [G10K]	2.01
AFLELPHGSNGSGYPAAPPAVPFA [G10N]	2.42
AFLELKHGSGGSGYPAAPPAVPFA [P6K]	2.37
AFLELRHGSGGSGYPAAPPAVPFA [P6R]	1.53
AFLELDHGSGGSGYPAAPPAVPFA [P6D]	2.31
AFLELIHGSGGSGYPAAPPAVPFA [P6I]	2.85
AFLELLHGSGGSGYPAAPPAVPFA [P6L]	2.4
AFLELYHGSGGSGYPAAPPAVPFA [P6Y]	2.36
AFLELFHGSGGSGYPAAPPAVPFA [P6F]	2.09
AFLELMHGSGGSGYPAAPPAVPFA [P6M]	2.29
AFLELHHGSGGSGYPAAPPAVPFA [P6H]	1.95
AFLELCHGSGGSGYPAAPPAVPFA [P6C]	1.34
AFLELSHGSGGSGYPAAPPAVPFA [P6S]	2.47

Variant	protein stability index
AFLELTHGSGGSGYPAAPPAVPFA [P6T]	2.21
AFLELWHGSGGSGYPAAPPAVPFA [P6W]	2.9
AFLELEHGSGGSGYPAAPPAVPFA [P6E]	2.62
AFLELGHGSGGSGYPAAPPAVPFA [P6G]	1.62
AFLELNHGSGGSGYPAAPPAVPFA [P6N]	2.14
AFLELQHGSGGSGYPAAPPAVPFA [P6Q]	2
AFLELAHGSGGSGYPAAPPAVPFA [P6A]	1.64
AFLSLPHGSGGSGYPAAPPAVPFA [E4S]	2.19
AFLVLPHGSGGSGYPAAPPAVPFA [E4V]	1.9
AFLKLPHGSGGSGYPAAPPAVPFA [E4K]	1.68
AFLTLPHGSGGSGYPAAPPAVPFA [E4T]	2.03
AFLMLPHGSGGSGYPAAPPAVPFA [E4M]	1.56
AFLILPHGSGGSGYPAAPPAVPFA [E4I]	3.55
AFLNLPHGSGGSGYPAAPPAVPFA [E4N]	2.09
AFLHLPHGSGGSGYPAAPPAVPFA [E4H]	2.12
AFLDLPHGSGGSGYPAAPPAVPFA [E4D]	2.42
AFLQLPHGSGGSGYPAAPPAVPFA [E4Q]	1.93
AFLYLPHGSGGSGYPAAPPAVPFA [E4Y]	2.2
AFLGLPHGSGGSGYPAAPPAVPFA [E4G]	2.13
AFLLLPHGSGGSGYPAAPPAVPFA [E4L]	2.21
AFLCLPHGSGGSGYPAAPPAVPFA [E4C]	2.17
AFLRLPHGSGGSGYPAAPPAVPFA [E4R]	1.76
AFLFLPHGSGGSGYPAAPPAVPFA [E4F]	1.4
AFLALPHGSGGSGYPAAPPAVPFA [E4A]	2.24

Variant	protein stability index
AFLPLPHGSGGSGYPAAPPAVPFA [E4P]	3.3
AFTELPHGSGGSGYPAAPPAVPFA [L3T]	3.23
AFKELPHGSGGSGYPAAPPAVPFA [L3K]	3.45
AFQELPHGSGGSGYPAAPPAVPFA [L3Q]	3.43
AFDELPHGSGGSGYPAAPPAVPFA [L3D]	3.96
AFCELPHGSGGSGYPAAPPAVPFA [L3C]	2.7
AFIELPHGSGGSGYPAAPPAVPFA [L3I]	2.28
AFNELPHGSGGSGYPAAPPAVPFA [L3N]	3.57
AFGELPHGSGGSGYPAAPPAVPFA [L3G]	3.43
AFAELPHGSGGSGYPAAPPAVPFA [L3A]	3.14
AFSELPHGSGGSGYPAAPPAVPFA [L3S]	2.87
AFWELPHGSGGSGYPAAPPAVPFA [L3W]	3.01
AFEELPHGSGGSGYPAAPPAVPFA [L3E]	3.66
AFMELPHGSGGSGYPAAPPAVPFA [L3M]	2.41
AFPELPHGSGGSGYPAAPPAVPFA [L3P]	4.08
AFRELPHGSGGSGYPAAPPAVPFA [L3R]	3.47
AFVELPHGSGGSGYPAAPPAVPFA [L3V]	2.93
AFFELPHGSGGSGYPAAPPAVPFA [L3F]	2.68
AFYELPHGSGGSGYPAAPPAVPFA [L3Y]	2.08
AFHELPHGSGGSGYPAAPPAVPFA [L3H]	3.19
